Measured values published in paper PMC2683190 (Neurobiology of disease, 2009).

Assays:
[1] = target: T1, soluble LIFR (leukemia inhibitory factor receptor) (UniProt P42702 45-833); experiment: SPR
T1 sequence (looked up): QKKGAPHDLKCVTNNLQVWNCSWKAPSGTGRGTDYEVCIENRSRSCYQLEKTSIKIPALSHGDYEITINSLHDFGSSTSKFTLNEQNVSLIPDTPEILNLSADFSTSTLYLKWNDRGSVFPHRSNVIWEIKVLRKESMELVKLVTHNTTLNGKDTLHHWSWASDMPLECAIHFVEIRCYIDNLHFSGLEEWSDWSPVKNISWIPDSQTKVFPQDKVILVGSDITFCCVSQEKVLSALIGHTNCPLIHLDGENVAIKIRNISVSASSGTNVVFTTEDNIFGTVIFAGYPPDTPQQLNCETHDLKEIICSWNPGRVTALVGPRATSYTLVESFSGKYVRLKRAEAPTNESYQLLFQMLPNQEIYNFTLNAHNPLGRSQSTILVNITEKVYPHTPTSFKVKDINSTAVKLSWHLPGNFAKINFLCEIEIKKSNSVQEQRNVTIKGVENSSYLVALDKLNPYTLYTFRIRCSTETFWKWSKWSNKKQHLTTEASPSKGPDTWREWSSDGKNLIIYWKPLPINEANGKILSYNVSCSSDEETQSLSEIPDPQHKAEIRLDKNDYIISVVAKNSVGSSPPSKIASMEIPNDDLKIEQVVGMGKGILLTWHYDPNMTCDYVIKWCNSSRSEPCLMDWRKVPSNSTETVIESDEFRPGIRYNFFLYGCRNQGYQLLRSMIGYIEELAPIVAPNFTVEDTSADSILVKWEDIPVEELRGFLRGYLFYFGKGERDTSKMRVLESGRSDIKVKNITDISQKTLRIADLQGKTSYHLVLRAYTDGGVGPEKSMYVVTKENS

[2] = target: T2, soluble gp130 (glycoprotein 130) (UniProt P40189 23-619); experiment: SPR
T2 sequence (looked up): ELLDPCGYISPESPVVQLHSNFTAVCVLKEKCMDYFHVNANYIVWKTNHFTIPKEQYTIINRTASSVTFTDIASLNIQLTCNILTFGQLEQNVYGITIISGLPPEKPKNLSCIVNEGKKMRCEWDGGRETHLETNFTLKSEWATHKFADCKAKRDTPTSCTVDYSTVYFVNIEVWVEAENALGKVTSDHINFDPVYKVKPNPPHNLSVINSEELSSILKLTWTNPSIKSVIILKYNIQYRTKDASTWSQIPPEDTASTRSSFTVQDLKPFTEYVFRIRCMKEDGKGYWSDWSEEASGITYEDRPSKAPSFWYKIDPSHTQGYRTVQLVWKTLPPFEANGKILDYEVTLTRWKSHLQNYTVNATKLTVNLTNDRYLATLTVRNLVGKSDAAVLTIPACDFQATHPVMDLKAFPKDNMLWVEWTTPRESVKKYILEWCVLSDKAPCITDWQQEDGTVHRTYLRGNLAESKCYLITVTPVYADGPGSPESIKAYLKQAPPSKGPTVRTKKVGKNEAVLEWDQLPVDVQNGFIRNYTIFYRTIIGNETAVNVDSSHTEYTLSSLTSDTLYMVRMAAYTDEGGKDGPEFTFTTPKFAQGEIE

B1: GST-LIF (human leukemia inhibitory factor as glutathione-S-transferase fusion protein) (ligand)
chain: not shown
[1]
  Kd: 2.93 nM
  koff: 0.00107 s⁻¹
  kon: 366000 M⁻¹ s⁻¹
[2]
  Kd: 9.02 nM
  koff: 0.0017 s⁻¹
  kon: 188000 M⁻¹ s⁻¹
